Laboratory results taken from the supplement of paper PMC5998384.

Columns and labels:
[1] = system: HeLa Kyoto; assay: melting temperature (median over replicates), in situ; higher = more thermally stable
[2] = system: HeLa Kyoto; assay: thermal stability score vs G1/S (z-score of summed log2 fold changes over temperatures); higher = more thermally stable than in G1/S
[3] = system: HeLa Kyoto; assay: solubility in G1/S (NP-40 vs SDS abundance) (log2 ratio); higher = more soluble; conditions: cell cycle stage: G1/S
[4] = system: HeLa Kyoto; assay: solubility change mitosis vs G1/S (difference of NP-40 vs SDS log2 ratios) (log2 ratio difference); higher = more soluble in mitosis
[5] = cell cycle stage: early G1 (4.5 h after nocodazole release)
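Wherever melting temperature (median over replicates), in situ is given: HeLa Kyoto cells synchronized by double thymidine or nocodazole block, proteins quantified by TMT10plex mass spectrometry, three independent biological replicates.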
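Wherever solubility change mitosis vs G1/S (difference of NP-40 vs SDS log2 ratios) is given: synchronized HeLa Kyoto cells (double thymidine block for G1/S, nocodazole release for mitosis), protein amounts in NP-40 versus SDS lysates quantified by mass spectrometry, three biological replicates.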
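Wherever solubility in G1/S (NP-40 vs SDS abundance) is given: HeLa Kyoto cells arrested at G1/S by double thymidine block, proteins quantified by TMT10plex mass spectrometry in mild NP-40 versus SDS extracts, three biological replicates.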
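Wherever thermal stability score vs G1/S (z-score of summed log2 fold changes over temperatures) is given: synchronized HeLa Kyoto cells, proteins quantified by TMT10plex mass spectrometry, three biological replicates, mitosis taken 0.5 h after nocodazole release, G1/S directly after double thymidine block.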

Row | Sequence | melting temperature ([1]; cell cycle stage: G1/S) [°C] | melting temperature ([1]; cell cycle stage: mitosis) [°C] | thermal stability score [2, 5] | thermal stability score ([2]; cell cycle stage: mitosis) | solubility in G1/S (log2) [3] | solubility change mitosis (log2) [4]
1 | MAETEERSLDNFFAKRDKKKKKERSNRAASAAGAAGSAGGSSGAAGAAGGGAGAGTRPGDGGTASAGAAGPGAATKAVTKDEDEWKELEQKEVDYSGLRVQAMQISSEKEEDDNEKRQDPGDNWEEGGGGGGGMEKSSGPWNKTAPVQAPPAPVIVTETPEPAMTSGVYRPPGARLTTTRKTPQGPPEIYSDTQFPSLQSTAKHVESRKDKEMEKSFEVVRHKNRGRDEVSKNQALKLQLDNQYAVLENQKSSHSQYN [CDV3] | 57.2 | 53.4 | -2.3 | -4.45 | -0.0527 | 0.0994
2 | MAEVKVKVQPPDADPVEIENRIIELCHQFPHGITDQVIQNEMPHIEAQQRAVAINRLLSMGQLDLLRSNTGLLYRIKDSQNAGKMKGSDNQEKLVYQIIEDAGNKGIWSRDIRYKSNLPLTEINKILKNLESKKLIKAVKSVAASKKKVYMLYNLQPDRSVTGGAWYSDQDFESEFVEVLNQQCFKFLQSKAETARESKQNPMIQRNSSFASSHEVWKYICELGISKVELSMEDIETILNTLIYDGKVEMTIIAAKEGTVGSVDGHMKLYRAVNPIIPPTGLVRAPCGLCPVFDDCHEGGEISPSNCIYMTEWLEF [POLR3F] | 52.4 | 52.7 | -0.67 | -1.78 | 0.528 | -0.0255
3 | MAFAETYPAASSLPNGDCGRPRARPGGNRVTVVLGAQWGDEGKGKVVDLLAQDADIVCRCQGGNNAGHTVVVDSVEYDFHLLPSGIINPNVTAFIGNGVVIHLPGLFEEAEKNVQKGKGLEGWEKRLIISDRAHIVFDFHQAADGIQEQQRQEQAGKNLGTTKKGIGPVYSSKAARSGLRMCDLVSDFDGFSERFKVLANQYKSIYPTLEIDIEGELQKLKGYMEKIKPMVRDGVYFLYEALHGPPKKILVEGANAALLDIDFGTYPFVTSSNCTVGGVCTGLGMPPQNVGEVYGVVKAYTTRVGIGAFPTEQDNEIGELLQTRGREFGVTTGRKRRCGWLDLVLLKYAHMINGFTALALTKLDILDMFTEIKVGVAYKLDGEIIPHIPANQEVLNKVEVQYKTLPGWNTDISNARAFKELPVNAQNYVRFIEDELQIPVKWIGVGKSRESMIQLF [ADSS] | 57.5 | 56.5 | -2.13 | -2.82 | 0.288 | -0.0978
4 | MAFANFRRILRLSTFEKRKSREYEHVRRDLDPNEVWEIVGELGDGAFGKVYKAKNKETGALAAAKVIETKSEEELEDYIVEIEILATCDHPYIVKLLGAYYHDGKLWIMIEFCPGGAVDAIMLELDRGLTEPQIQVVCRQMLEALNFLHSKRIIHRDLKAGNVLMTLEGDIRLADFGVSAKNLKTLQKRDSFIGTPYWMAPEVVMCETMKDTPYDYKADIWSLGITLIEMAQIEPPHHELNPMRVLLKIAKSDPPTLLTPSKWSVEFRDFLKIALDKNPETRPSAAQLLEHPFVSSITSNKALRELVAEAKAEVMEEIEDGRDEGEEEDAVDAASTLENHTQNSSEVSPPSLNADKPLEESPSTPLAPSQSQDSVNEPCSQPSGDRSLQTTSPPVVAPGNENGLAVPVPLRKSRPVSMDARIQVAQEKQVAEQGGDLSPAANRSQKASQSRPNSSALETLGGEKLANGSLEPPAQAAPGPSKRDSDCSSLCTSESMDYGTNLSTDLSLNKEMGSLSIKDPKLYKKTLKRTRKFVVDGVEVSITTSKIISEDEKKDEEMRFLRRQELRELRLLQKEEHRNQTQLSNKHELQLEQMHKRFEQEINAKKKFFDTELENLERQQKQQVEKMEQDHAVRRREEARRIRLEQDRDYTRFQEQLKLMKKEVKNEVEKLPRQQRKESMKQKMEEHTQKKQLLDRDFVAKQKEDLELAMKRLTTDNRREICDKERECLMKKQELLRDREAALWEMEEHQLQERHQLVKQQLKDQYFLQRHELLRKHEKEREQMQRYNQRMIEQLKVRQQQEKARLPKIQRSEGKTRMAMYKKSLHINGGGSAAEQREKIKQFSQQEEKRQKSERLQQQQKHENQMRDMLAQCESNMSELQQLQNEKCHLLVEHETQKLKALDESHNQNLKEWRDKLRPRKKALEEDLNQKKREQEMFFKLSEEAECPNPSTPSKAAKFFPYSSADAS [STK10] | 48.1 | 48.2 | 1.19 | 2.43 | 0.0626 | -0.0397
5 | MAFNFGAPSGTSGTAAATAAPAGGFGGFGTTSTTAGSAFSFSAPTNTGTTGLFGGTQNKGFGFGTGFGTTTGTSTGLGTGLGTGLGFGGFNTQQQQQTTLGGLFSQPTQAPTQSNQLINTASALSAPTLLGDERDAILAKWNQLQAFWGTGKGYFNNNIPPVEFTQENPFCRFKAVGYSCMPSNKDEDGLVVLVFNKKETEIRSQQQQLVESLHKVLGGNQTLTVNVEGTKTLPDDQTEVVIYVVERSPNGTSRRVPATTLYAHFEQANIKTQLQQLGVTLSMTRTELSPAQIKQLLQNPPAGVDPIIWEQAKVDNPDSEKLIPVPMVGFKELLRRLKVQDQMTKQHQTRLDIISEDISELQKNQTTSVAKIAQYKRKLMDLSHRTLQVLIKQEIQRKSGYAIQADEEQLRVQLDTIQGELNAPTQFKGRLNELMSQIRMQNHFGAVRSEERYYIDADLLREIKQHLKQQQEGLSHLISIIKDDLEDIKLVEHGLNETIHIRGGVFS [NUP54] | 51.5 | 49 | -3.43 | -5.53 | 0.299 | 0.0698
6 | MAFPPRRRLRLGPRGLPLLLSGLLLPLCRAFNLDVDSPAEYSGPEGSYFGFAVDFFVPSASSRMFLLVGAPKANTTQPGIVEGGQVLKCDWSSTRRCQPIEFDATGNRDYAKDDPLEFKSHQWFGASVRSKQDKILACAPLYHWRTEMKQEREPVGTCFLQDGTKTVEYAPCRSQDIDADGQGFCQGGFSIDFTKADRVLLGGPGSFYWQGQLISDQVAEIVSKYDPNVYSIKYNNQLATRTAQAIFDDSYLGYSVAVGDFNGDGIDDFVSGVPRAARTLGMVYIYDGKNMSSLYNFTGEQMAAYFGFSVAATDINGDDYADVFIGAPLFMDRGSDGKLQEVGQVSVSLQRASGDFQTTKLNGFEVFARFGSAIAPLGDLDQDGFNDIAIAAPYGGEDKKGIVYIFNGRSTGLNAVPSQILEGQWAARSMPPSFGYSMKGATDIDKNGYPDLIVGAFGVDRAILYRARPVITVNAGLEVYPSILNQDNKTCSLPGTALKVSCFNVRFCLKADGKGVLPRKLNFQVELLLDKLKQKGAIRRALFLYSRSPSHSKNMTISRGGLMQCEELIAYLRDESEFRDKLTPITIFMEYRLDYRTAADTTGLQPILNQFTPANISRQAHILLDCGEDNVCKPKLEVSVDSDQKKIYIGDDNPLTLIVKAQNQGEGAYEAELIVSIPLQADFIGVVRNNEALARLSCAFKTENQTRQVVCDLGNPMKAGTQLLAGLRFSVHQQSEMDTSVKFDLQIQSSNLFDKVSPVVSHKVDLAVLAAVEIRGVSSPDHVFLPIPNWEHKENPETEEDVGPVVQHIYELRNNGPSSFSKAMLHLQWPYKYNNNTLLYILHYDIDGPMNCTSDMEINPLRIKISSLQTTEKNDTVAGQGERDHLITKRDLALSEGDIHTLGCGVAQCLKIVCQVGRLDRGKSAILYVKSLLWTETFMNKENQNHSYSLKSSASFNVIEFPYKNLPIEDITNSTLVTTNVTWGIQPAPMPVPVWVIILAVLAGLLLLAVLVFVMYRMGFFKRVRPPQEEQEREQLQPHENGEGNSET [ITGAV] | 56 | 54.8 | -1.75 | -1.34 | 0.295 | -0.152
7 | MAFRGWRPPPPPLLLLLLWVTGQAAPVAGLGSDAELQIERRFVPDECPRTVRSGDFVRYHYVGTFPDGQKFDSSYDRDSTFNVFVGKGQLITGMDQALVGMCVNERRFVKIPPKLAYGNEGVSGVIPPNSVLHFDVLLMDIWNSEDQVQIHTYFKPPSCPRTIQVSDFVRYHYNGTFLDGTLFDSSHNRMKTYDTYVGIGWLIPGMDKGLLGMCVGEKRIITIPPFLAYGEDGDGKDIPGQASLVFDVALLDLHNPKDSISIENKVVPENCERISQSGDFLRYHYNGTLLDGTLFDSSYSRNRTFDTYIGQGYVIPGMDEGLLGVCIGEKRRIVVPPHLGYGEEGRGNIPGSAVLVFDIHVIDFHNPSDSISITSHYKPPDCSVLSKKGDYLKYHYNASLLDGTLLDSTWNLGKTYNIVLGSGQVVLGMDMGLREMCVGEKRTVIIPPHLGYGEAGVDGEVPGSAVLVFDIELLELVAGLPEGYMFIWNGEVSPNLFEEIDKDGNGEVLLEEFSEYIHAQVASGKGKLAPGFDAELIVKNMFTNQDRNGDGKVTAEEFKLKDQEAKHDEL [FKBP9] | 53.7 | 54.5 | 4.29 | 4.83 | 0.21 | -0.0483
8 | MAFVPVIPESYSHVLAEFESLDPLLSALRLDSSRLKCTSIAVSRKWLALGSSGGGLHLIQKEGWKHRLFLSHREGAISQVACCLHDDDYVAVATSQGLVVVWELNQERRGKPEQMYVSSEHKGRRVTALCWDTAILRVFVGDHAGKVSAIKLNTSKQAKAAAAFVMFPVQTITTVDSCVVQLDYLDGRLLISSLTRSFLCDTEREKFWKIGNKERDGEYGACFFPGRCSGGQQPLIYCARPGSRMWEVNFDGEVISTHQFKKLLSLPPLPVITLRSEPQYDHTAGSSQSLSFPKLLHLSEHCVLTWTERGIYIFIPQNVQVLLWSEVKDIQDVAVCRNELFCLHLNGKVSHLSLISVERCVERLLRRGLWNLAARTCCLFQNSVIASRARKTLTADKLEHLKSQLDHGTYNDLISQLEELILKFEPLDSACSSRRSSISSHESFSILDSGIYRIISSRRGSQSDEDSCSLHSQTLSEDERFKEFTSQQEEDLPDQCCGSHGNEDNVSHAPVMFETDKNETFLPFGIPLPFRSPSPLVSLQAVKESVSSFVRKTTEKIGTLHTSPDLKVRPELRGDEQSCEEDVSSDTCPKEEDTEEEKEVTSPPPEEDRFQELKVATAEAMTKLQDPLVLFESESLRMVLQEWLSHLEKTFAMKDFSGVSDTDNSSMKLNQDVLLVNESKKGILDEDNEKEKRDSLGNEESVDKTACECVRSPRESLDDLFQICSPCAIASGLRNDLAELTTLCLELNVLNSKIKSTSGHVDHTLQQYSPEILACQFLKKYFFLLNLKRAKESIKLSYSNSPSVWDTFIEGLKEMASSNPVYMEMEKGDLPTRLKLLDDEVPFDSPLLVVYATRLYEKFGESALRSLIKFFPSILPSDIIQLCHHHPAEFLAYLDSLVKSRPEDQRSSFLESLLQPESLRLDWLLLAVSLDAPPSTSTMDDEGYPRPHSHLLSWGYSQLILHLIKLPADFITKEKMTDICRSCGFWPGYLILCLELERRREAFTNIVYLNDMSLMEGDNGWIPETVEEWKLLLHLIQSKSTRPAPQESLNGSLSDGPSPINVENVALLLAKAMGPDRAWSLLQECGLALELSEKFTRTCDILRIAEKRQRALIQSMLEKCDRFLWSQQA [HPS5] | 48.6 | 49.5 | 1.53 | 1.55 | -0.142 | -0.108
9 | MAGAGPAPGLPGAGGPVVPGPGAGIPGKSGEERLKEMEAEMALFEQEVLGAPVPGIPTAVPAVPTVPTVPTVEAMQVPAAPVIRPIIATNTYQQVQQTLEARAAAAATVVPPMVGGPPFVGPVGFGPGDRSHLDSPEAREAMFLRRAAVAPQRAPILRPAFVPHVLQRADSALSSAAAGPRPMALRPPHQALVGPPLPGPPGPPMMLPPMARAPGPPLGSMAALRPPLEEPAAPRELGLGLGLGLKEKEEAVVAAAAGLEEASAAVAVGAGGAPAGPAVIGPSLPLALAMPLPEPEPLPLPLEVVRGLLPPLRIPELLSLRPRPRPPRPEPPPGLMALEVPEPLGEDKKKGKPEKLKRCIRTAAGSSWEDPSLLEWDADDFRIFCGDLGNEVNDDILARAFSRFPSFLKAKVIRDKRTGKTKGYGFVSFKDPSDYVRAMREMNGKYVGSRPIKLRKSMWKDRNLDVVRKKQKEKKKLGLR [RBM42] | 51.6 | 50.1 | -2.37 | -2.6 | 0.0912 | 0.019
